In US20110150861A1:

Molecular target: human TNFalpha (human) (UniProt P01375)
Experiment: SPR (BiaCore), antibody purified by protein A and SEC

Sequence of UniProt P01375 (P01375 77-233 limits assumed): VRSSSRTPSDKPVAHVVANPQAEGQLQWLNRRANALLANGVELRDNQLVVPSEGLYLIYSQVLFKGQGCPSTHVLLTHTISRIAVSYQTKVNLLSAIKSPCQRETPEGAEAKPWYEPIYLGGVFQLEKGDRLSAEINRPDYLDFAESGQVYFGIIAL

D2E7 antibody product secreted from sORF construct pTT3-pfu lon HL (-)
Kd: 0.0729 nM | koff: 0.00011 s⁻¹ | kon: 1.51e+06 M⁻¹ s⁻¹
